Key:
Conditions in all cases: protein: recombinant; tags: His; chain copies: 2; label: 32P end label
HIS-Yna2p(1-180) [1] = molecular target: T1, HIS-Yna2p(1-180) (Hansenula polymorpha (syn. Pichia …, UniProt Q9HFM7 1-180)); experiment: EMSA; poly(dIdC); EMSA: 75 ng protein in 10 ul KCl 1 mM, spermidine 80 mM (so in the source), 0.1 mg/ml poly(dIdC), on ice then 30 min at room temperature with probe; 6% PAGE, 50% glycerol, 0.5x TBE; pH not stated
T1 sequence: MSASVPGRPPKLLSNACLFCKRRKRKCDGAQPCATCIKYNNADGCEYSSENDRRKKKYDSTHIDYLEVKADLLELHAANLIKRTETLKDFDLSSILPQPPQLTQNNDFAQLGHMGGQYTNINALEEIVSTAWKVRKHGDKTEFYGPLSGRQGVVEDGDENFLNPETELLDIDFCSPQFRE

HIS-Yna1p(1-185) [2] = molecular target: T2, HIS-Yna1p(1-185) (Hansenula polymorpha (syn. Pichia …, UniProt O93984 1-185)); experiment: EMSA; poly(dIdC); complex diminished by 1x-2x unlabelled probe; EMSA: 75 ng protein in 10 ul KCl 1 mM, spermidine 80 mM (so in the source), 0.1 mg/ml poly(dIdC), on ice then 30 min at room temperature with probe; 6% PAGE, 50% glycerol, 0.5x TBE; pH not stated
T2 sequence: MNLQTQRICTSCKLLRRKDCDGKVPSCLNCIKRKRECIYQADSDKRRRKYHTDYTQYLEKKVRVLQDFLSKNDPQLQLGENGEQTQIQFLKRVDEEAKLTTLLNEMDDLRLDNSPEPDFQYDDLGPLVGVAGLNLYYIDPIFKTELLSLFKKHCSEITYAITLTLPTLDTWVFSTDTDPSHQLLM

HIS-Yna2p(1-180) [3] = molecular target: T1, HIS-Yna2p(1-180); experiment: EMSA; poly(dIdC); no detectable complex; EMSA: 75 ng protein in 10 ul KCl 1 mM, spermidine 80 mM (so in the source), 0.1 mg/ml poly(dIdC), on ice then 30 min at room temperature with probe; 6% PAGE, 50% glycerol, 0.5x TBE; pH not stated
HIS-Yna1p(1-185) [4] = molecular target: T2, HIS-Yna1p(1-185); experiment: EMSA; poly(dIdC); complex abrogated by 1x-2x unlabelled probe; less stable than with probe 1; EMSA: 75 ng protein in 10 ul KCl 1 mM, spermidine 80 mM (so in the source), 0.1 mg/ml poly(dIdC), on ice then 30 min at room temperature with probe; 6% PAGE, 50% glycerol, 0.5x TBE; pH not stated
HIS-Yna1p(1-185) [5] = molecular target: T2, HIS-Yna1p(1-185); experiment: EMSA; poly(dIdC); binding disrupted; EMSA: 75 ng protein in 10 ul KCl 1 mM, spermidine 80 mM (so in the source), 0.1 mg/ml poly(dIdC), on ice then 30 min at room temperature with probe; 6% PAGE, 50% glycerol, 0.5x TBE; pH not stated
HIS-Yna1p(1-185) [6] = molecular target: T2, HIS-Yna1p(1-185); experiment: EMSA; poly(dIdC); complex formation disrupted; EMSA: 75 ng protein in 10 ul KCl 1 mM, spermidine 80 mM (so in the source), 0.1 mg/ml poly(dIdC), on ice then 30 min at room temperature with probe; 6% PAGE, 50% glycerol, 0.5x TBE; pH not stated

B1: YNT1 probe 1 (dsDNA)
DNA 1: CCCGCTCATCGGAGAATATTCTGCTCAAAATTAAGGATGCCCAT
DNA 2: ATGGGCATCCTTAATTTTGAGCAGAATATTCTCCGATGAGCGGG
binding result (HIS-Yna2p(1-180) [1]): binds
binding result (HIS-Yna1p(1-185) [2]): binds

B2: YNT1 probe 2 (dsDNA)
DNA 1: GGCTAGCATCCCGCTCATCGGAGAATATTCTGC
DNA 2: GCAGAATATTCTCCGATGAGCGGGATGCTAGCC
binding result (HIS-Yna2p(1-180) [3]): no binding
binding result (HIS-Yna1p(1-185) [4]): binds

B3: YNT1 probe 2 m2 (dsDNA)
DNA 1: GGCTAGCATCCCGCTCATATTAGAATATTCTGC
DNA 2: GCAGAATATTCTAATATGAGCGGGATGCTAGCC
binding result (HIS-Yna1p(1-185) [5]): no binding

B4: YNT1 probe 2 m1 (dsDNA)
DNA 1: GGCTAGCATCAATCTCATCGGAGAATATTCTGC
DNA 2: GCAGAATATTCTCCGATGAGATTGATGCTAGCC
binding result (HIS-Yna1p(1-185) [6]): no binding

From paper PMC4559421, “Interaction of Yna1 and Yna2 Is Required for Nuclear Accumulation and Transcriptional Activation of the Nitrate Assimilation Pathway in the Yeast Hansenula polymorpha”
